Reference: article PMC7552008

Key:
NS1 RBD H7N1 [1] = target: T1, NS1 RBD H7N1 (Influenza A virus (avian H7N1; allele B), UniProt Q1PST0 1-73); experiment: competition EMSA; EC50app vs labelled AWFC01; conditions: protein: recombinant, tags: N-His thrombin-cleaved (vector residues remain), chain copies: 2
NS1 RBD H7N9 = NS1 RBD H7N9 (Influenza A virus (H7N9), UniProt S4VCY8 1-73); experiment: EMSA; conditions: protein: recombinant; tags: N-His thrombin-cleaved; chain copies: 2; label: 5'-32P
NS1 RBD H7N1 [2] = target: T1, NS1 RBD H7N1; experiment: EMSA; conditions: protein: recombinant; tags: N-His thrombin-cleaved (vector residues remain); chain copies: 2; label: 5'-32P
NS1 RBD H17N10 = NS1 RBD H17N10 (Influenza A virus (H17N10), UniProt H6QM79 1-73); experiment: EMSA; conditions: protein: recombinant; tags: N-His thrombin-cleaved; chain copies: 2; label: 5'-32P
NS1 RBD H7N1 [3] = target: T1, NS1 RBD H7N1; experiment: X-ray crystallography; 2.30 A; 2 M ammonium sulfate; conditions: protein: recombinant; tags: N-His thrombin-cleaved (vector residues remain); chain copies: 2

B1: AWFC01 (dsRNA)
RNA 1: GGUAACUGUUACAGUUACC
RNA 2: GGUAACUGUUACAGUUACC
IC50 (NS1 RBD H7N1 [1]; label: 5'-32P): 1.7 ± 0.1 nM
Kd (NS1 RBD H7N9): 3.1 ± 0.1 nM
Kd (NS1 RBD H7N1 [2]): 0.83 ± 0.03 nM
Kd (NS1 RBD H17N10): 1.5 ± 0.1 nM

B2: ZKO* (dsRNA)
RNA 1: AGACAGCAUUAUGCUGUCU
RNA 2: AGACAGCAUUAUGCUGUCU
binding result (NS1 RBD H7N1 [3]): binds

AGCAAAAG (ssRNA) [DM01-mot A]
binding result (NS1 RBD H7N1 [2]): no binding

B3: ZKO (dsRNA)
RNA 1: AGACAGCAUUAUGCUGUCUUU
RNA 2: AGACAGCAUUAUGCUGUCUUU
IC50 (NS1 RBD H7N1 [1]): 96 ± 3 nM

UGAUUGAAG (ssRNA) [DM03-mot B]
binding result (NS1 RBD H7N1 [2]): no binding
